# Assay results reported in paper PMC8196545 (Cell reports, 2021).
# B1: c5275 (antibody, V domains shown)
# VH: QGQLVESGGGVVQPGTSLRLSCKASGFSFSNHVMHWVRQAPGKGLEWVAAIWDDGSNQYYRDSVKGRFTISRDNSKNTLFLQMSSLTVQDTAIYFCARRMSAVGTIFAYFNYGMDVWGRGTTVIVSS
# VL: EVVLTQSPGTLSLSPGERGTLSCRASQHLSDSSLAWYQQKPGQAPRLLIYAASRRATGIPDRFSGSGSGTDFTLTISRLDPDDFAVYYCQHYGNSPVITFGQGTRLDIK
# B2: c9497 (antibody, V domains shown)
# VH: QVQLVQSGAEVKKPGSSVKVSCKASGGSFSDYGISWVRQAPGQGLEWMGGIIPGLETTKFAQGLQGRLTMTADESSTTAYMVLTRLRSQDTAVYYCATTGQQNDYYSSGTSYKLNYYFGMDVWGQGTTVTVSS
# VL: QSVLTQPPSSSGTPGQRVTITCSGGSSNIETNSVNWYQQLPGAAPKTVISATHQRPSGVPDRFSASKSGASASLAISGLQSEDEADYYCAVWDDSLHAWVFGGGTKVTVL
# B3: c5296 (antibody, V domains shown)
# VH: QVHLQESAPTLVKTSETLSLTCTVSGGQFYPYFYSWIRQSPGGKLQWIGRKYSTTGSMRTNPSLHTRVGMPLDHSRSQIGLTLSSITAADTGIYYCVRDIMRDFDSVDGSGGVYGGVDVWGRGTTVTVSS
# VL: QFLLTQPHSVSGSPGKTITISCTRSDGTFARNSVRWYLQRPGEGPTTVFFDGNRRASGIPDRFSASIAVSSASASLTISGLTPEDEADYYCESSDGGHHVVFGGGTKVTVL
# B4: c9603 (antibody, V domains shown)
# VH: EVHLLQSAAEVKKPGSTVKVSCKVSGYTFTDYFLHWIQQTPERGLLWMGFVDPDSGVTVYAENFQGRITMTADTSSDTVYLEISSLTSEDAAVYYCATGSHSYPDTDGNPVYVMAFQYWGQGTLVSVSS
# VL: DIVMTQSPDSLGVSLGETATVKCKSSQSILYSSDNKNYLAWYQQKPGQPPKLLIYWASTRESGVPDRFSGSGSETDFTLTINNVQAEDVAVYYCQQYSESPPTFGGGTKVDFK
# B5: c9488 (antibody, V domains shown)
# VH: QVQLVQSGSEVKKPGASVKVSCKASDYTFPNFGISWLRQAPGQGLEWMGWIRGSDGETNYAQKFKDRVTLTTERSRGTAYMELRSLISDDTAVYYCARDLKWDCSKRGCPDYQWFDIWGQGTLVTVSS
# VL: DVVMTQSPLSLPVTLGQPASISCISSHSLVYTDGNTYLAWFQQRPGQSPRRLIYTVSKRDSGVPDRFSGSGSGTDFTLKISRVEAEDVGIYFCMQGRHWPYTFGQGTTLEIK
# B6: c4302 (antibody, V domains shown)
# VH: QVLLEQSGGEMKKPGASLKVSCQASGYRFTNYGMSWVRQARGQGLEWMGWISAYNGKTIYAQRFQGRVTLTTDTSTRTAYLELRSLTSDDTAVYFCTRSQTYYFDSSDFYDGKYFDYWGQGTLVTVSS
# VL: AIQLTQSPSSLSASVGDRVTLTCRASQGISNALAWYQQKPGESPKLLIHAASSLESGVPSRFSGSGSGTDFTLTISGLQAEDFATYYCQQFNSFPLTFGPGTRLEIK
# B7: c11405 (antibody, V domains shown)
# VH: EARLVESGGGRVQPGGSLRLSCEASGFRFSSYSFTWVRQSPGKGLEWLAKISASPFGRSQVNYAHSVEGRFTISRDNDRNSLRLQMNDLRGADTGVYYCARAPWQERSLDYNYAMDVWGQGTTVIVSS
# VL: ELVLTQSPGTLSLSPGERATVSCRASQSLRRDSLAWYQQKPGHSPRLLIFAASNRVPGIPYRFSGTGSGTQFTLTIEKMEPEDFAVYYCQSYGSSPLYTFGQGTKLDIN
# B8: c11031 (antibody, V domains shown)
# V domain 1: EVRLDQSGAEMRKTGTSVRLSCTISGHTTSDFFIHWVKQAPQRGPQWMGLINVEDENVIFAEGFQGRISIGADTSRTTVFLDLTHLTVEDMALYFCTTHTLEKDTGDYVAAFDSWGHGTFLSVSS
# V domain 2: QSVLTQPPSVSAVPGQKVIISCSGRTSNIGTNFVSWYQQFPGAAPKLLIYDTSHRPSGISDRFSASKSDTSATLAITALQPGDEAEYYCGAWDSGLNPAVFVFGSGTRVFVL
# B9: c10868 (antibody, V domains shown)
# V domain 1: EVRLDQSGAEMGKTGTSVRLSCTVSGHTTSDFFIHWVKQAPQRGPQWMGLINVEDENVIFAEGFQGRISIGADTSKTTVFLDLTHLTFEDMALYFCTTHTLEKDTGDYVSAFDSWGQGTFLSVSS
# V domain 2: QSVLTQPPSVSAVPGQKVIISCSGRTSNIGTNFVSWYQQFPGAAPKLLIYDTFHRPSGISDRFSASKSDTSATLAITALQPGDEAEYYCGAWDSGLNPAVFVFGSGTRVFVL
# B10: c10920 (antibody, V domains shown)
# V domain 1: EVRLDQSGAEMRKPGTSVRLSCTVSGHRTNDFFIHWVKQDPQRGPLWMGLINVEDENAIYAQEFQGRISIVADSSKTTVFLDLSHLKFEDTALYLCTTHTLEKETGDYVAAFDSWGQGTFLSVSS
# V domain 2: QSVLTQPPSVSAVPGQKVIISCSGRTSNIGTNFVSWYQQFPGAAPKLLIYDTFHRPSGISDRFSASKSDTSATLAITALQPGDEAEYYCGSWDSGLNPAVFVFGSGTRVFVL
# B11: c10927 (antibody, V domains shown)
# V domain 1: EVRLDQSGTEMRKPGTRVRLSCKVSGHTTSDFFVHWVQQAPQRGPQWMGLINVEDENVIYADIFQGRISIVADTSKKTVFLDLTDLTFEETAIYFCATHTLQKDTGDYVAAFDSWGQGTLLYVSS
# V domain 2: QSVLTQPPSVSAVPGQKVIISCSGRTSNIGTNFVSWYQQFPGAAPKLLIYDNFNRPSGISDRFSASKSDTSATLAITALQAGDEAEYYCGAWDSGLNPAVFVFGSGTRVFVL
# B12: c10859 (antibody, V domains shown)
# VH: AGHLVESGGKLIRPGGSLSLSCVASGFTFRNAYLTWVRHIPGKGLEWVAHMKSHADGSHTDYSASVQGRCAISRDDSASTLYLHISNLRLDDTGVYYCVHLSTPDEWGHGTPVIVSS
# VL: DVVLTQYPVTLSGSQGDTVALSCRASESLTSHLAWYQQRDGQRPRLLIYDTSHRPPATPPRFSASGSGTDFTLIITSLEPEDSAVYFCQQRDFWPFSFGQGTKLDIT
# B13: c5338 (antibody, V domains shown)
# VH: HVRLEQWGPGLLKPSETLSLSCVVHGESFDPYSWTWIRQSPKMGPQWLGEIRPFGETVYNPSLSGRLSLSRDNSKRLISLRLTSVSAADSAVYFCARGPVIYEVPYFWYRGLNVWGPGTTVVVST
# VL: DVVVTQSPLSVSVTPGESATILCKSSHSLRHDNGMHYLDWYLQKPGQSPQLLIYLSSNRASGVPDRFIGSGSGTDFTLKISRVEAEDVGMYFCMQGRQDPRIFGRGTRLEIK
# B14: c8537 (antibody, V domains shown)
# VH: QVHLVESGGGVVQPGKSLRLSCTSSGFTFSNYGFHWVRQAPGKGLEWVSFISNDGSNHFYTQSLRGRFTISRDNSKGTLYLEMNSLRSEDTAIYYCARDLYSRYRGYYDDLTGENHGNFDYWGLGTLVTVSA
# VL: NFLLSQSLSVSESPGKTVTISCTRSSGNIASNSVQWYQLRPGSSPTTLIYKNRQRPSGISDRFSGSVDTSSNSASLIISGLKTDDEADYYCQSFDNVNQEWVFGGGTKVTVL
# B15: c2518 (antibody, V domains shown)
# VH: QVRLHQWGEGLLRPSDTLTLSCSLSGNVFYNTFFNWVRQSPGRGLEWIAEVSFAGEWTFNPSLRSRVTTQVDGFTYRVSLFLKSMTAADAGVYYCASGGGSFDVDSWGPGIRVTVSS
# VL: EIVLTQTPLSSPVSLGQSASISCRSSQSLRHNNGNTYLSWFQQRPGQPPRLLIRKISDRFSGVPNRFSGSGAGTDFTLRIDRVEPEDVGTYYCLQATQFPWTFGQGTTVDIK
# B16: c13230 (antibody, V domains shown)
# VH: QVQLVESGGGVVQPGKSLKLSCATSGFNFSTFGIHWVRQAPGKGLEWLTVISYDGSEKFYGESVKGRFTISRDTSKKTVFLQIKSLKTEDTAVYYCAKDRAENRVSTSPLGMYYYFGMDVWGQGTTVIVSS
# VL: EIMMTQSPATLSASPGEGVTLSCRASQSVSNDFAWYQQTPGQSPKLLFYDAYTRATGVPARFSVNGSGTDFTLTINSLQSEDFASYYCLQYHKWPPYSFGQGTKLGIK
# B17: c7565 (antibody, V domains shown)
# VH: QVRLEERGPGLVKPSETLSLVCGVSGYTMSGLWSTTYDWNWIRQSAGGRPEWIGRIYVGGPAQYNPAFKDRVAFSIDLSKNELSLTLTSVTAADSATYFCARGGDTFHPRYWYTMNIWGSGTKVIVSS
# VL: DIQLTQSPSTVSASVGDRITMSCRANKSLDVWVAWFRRRPGKAPEHLIYRRDYVWGGLPSRFSGSGSGTEFTLTISSLQAGDFGTYYCHQYKDQPWTFGQGTRVDLK
# B18: c8540 (antibody, V domains shown)
# VH: QVQLLQSGPEVKKPGASVKVSCKTSGYTFTSYAITWVRQAPGEGLEWLGWISPHSRTAKYAQKFQGRLTMTTDTSTATAYMDLRSLSPDDTAVYYCARRIYDWDIERARFDPWGQGTLVAVSS
# VL: QSVLTQPPSVSADPGQRVTISCSGSSSNIGKNFVSWYQQLPGTAPKLVIYDNDRRPSGIPDRFSGSKSGTSATLGITGLQTGDEAAYYCATWDSGLNDGPVFGGGTRLTVL
# B19: c5392 (antibody, V domains shown)
# VH: ELQLKESGPGLVKPSETLSLTCAVSGGPMCADWCFYYHWNWVRLSAEKGLEWMGRIHISGTAEYNPSFKGRATISLDISKNELSLTMTSLAAADTAVYFCARSGGNFHPTYFYMMDIWGRGTTVVVSS
# VL: DIQMTQSPSTLYASLGETVTITCRASQNIKKWLAWYQMRPGRAPRLLIYMATYRHDADSARYIGSESGGEFTLTIKSLRPDDFGTFYCQQYGAQPWTFGQGTRLEVK
# B20: c6486 (antibody, V domains shown)
# VH: QPQMIQSGIEVKQPGAAVKVRCKPSGYWFIACGISWVRQAPGRGLEWLGWVYPYNGKVNHAQKFRGRVTLTADRSTETAYMELKSLTSDDTAIYYCARDSEQYDAAMPNYFTQYGMDVWGQGTTVIVSS
# VL: EIVLTQSPGTLSLSPGETAALSCRSSQAFTDKGLAWYKQRPGQPPSLFVYGVSKRAAGVPDRVTGSGSGTEYTLTIGRLEPEDSGLYFCQQYHDPARTFGQGTKLEIK
# B21: c5250 (antibody, V domains shown)
# VH: QVRLEQWGPGLLKPSETLSLTCAVHGESFDDYSWTWIRHTPSLGLQWIGEIRPFGEIVHKSSLSGRLSFSRDTSKRQVYLKLASVTAADAGVYFCARGPVIYQLPHFYYRGYNVWGQGTTVTVSA
# VL: DLVVTQSPRSLPVTPGESATIFCRSSQSLRHDNGMHYLDWYLQKPGQSPQLLIYLTSNRASGVSDRFSGSGSGTEFTLKISRVEADDVGIYYCMQAIQDPRVFGQGTRLEIK
# Biological target: HIV-1 NL4-3 Env on infected cells (HIV-1 group M subtype B, NL4-3 (pNL4-3 …, strain))
row,Binder,binding result
1,B1,binds
2,B2,binds
3,B3,binds
4,B4,binds
5,B5,binds
6,B6,binds
7,B7,binds
8,B8,binds
9,B9,binds
10,B10,binds
11,B11,binds
12,B12,binds
13,B13,binds
14,B14,binds
15,B15,binds
16,B16,binds
17,B17,binds
18,B18,binds
19,B19,binds
20,B20,binds
21,B21,binds
